Data: US6730293B1, “Compositions and methods for treating inflammatory diseases of the skin” (CellGate, Inc., priority 1999, dated 2004)
Square brackets hold non-standard residues; d marks the D form. Peptide text beside a SMILES is read from it. * marks the point of attachment. X1 = C[C@]12CCC(=O)C=C1CC[C@@H]1[C@@H]2[C@@H](O)C[C@@]2(C)[C@H]1CC[C@]2(O)C(=O)COC(=O)C*; Biotin = O=C1N[C@H]2[C@H](CS[C@H]2CCCCC(=O)*)N1; Ahx = NCCCCCC(=O)O

Assays:
skin of nude mice = test: Penetration of hydrocortisone-biotinylated D-arginine conjugates into skin of nude mice; type: in vivo; conditions: back of nude mice, in PBS, 30, 60, 120 minutes
Method: Slides were analyzed by fluorescent microscopy.

[1] = tested on: abdominal skin of nude mice; test: Penetration of Cu-DTPA-r7 complex into skin of nude mice (blue color); type: in vivo; conditions: abdominal region of nude mice, 15, 30 and 45 minutes
Method: Metal diethylenetriaminepentaacetic acid (DTPA) complexes were formed by mixing equimolar amounts of metal salts with DTPA in water for 18 hours. At the end of this time, the solutions were centrifuged, frozen and lyophilized. The dried powder was characterized by mass spectrometry and used in solid phase peptide synthesis. The metal-DTPA complexes were attached to polymers of D- or L-arginine that were still attached to solid-phase resin used in peptide synthesis. The metal-DTPA complexes were attached using an aminocaproic acid spacer. The solid phase peptide synthesis techniques were described in Example 1, with the exception that cleavage of the peptide-DTPA -metal complex in trifluoroacetic acid released the metal. The metal is replaced after HPLC purification and lyophilization of the peptide-DTPA complex. Replacement of the metal involved incubation of equimolar amounts of the metal salt with the peptide-aminocaproic acid-DTPA complex and subsequent lyophilization.
Varying concentrations (1 M to 1 mM) of the Cu-DTPA -aca-r7 complex were applied to the abdominal region of nude mice for 15, 30 and 45 minutes. As controls, an equimolar amount of the Cu-DTPA complex was spotted onto the abdominal region.

[2] = tested on: full thickness human skin grafted onto the back of a SCID mouse; conditions: in vivo
[3] = tested on: CD3+ T cells in inflamed skin; conditions: mouse, in vivo
[4] = pH dependent stability / release of releasable Cyclosporin A conjugate; type: physicochemical; conditions: acidic pH vs physiological pH, absence of serum
Description: See, e.g., R. E. Handschumacher, et al., Science 226, 544-7 (1984).
Another modification in the design of the releasable conjugate was the use of L-arginine (R), and not D-arginine (r) in the transporter.

For `C[C@H](NC(=O)[C@H](C)NC(=O)[C@@H](CCCNC(=N)N)NC(=O)[C@@H](CCCNC(=N)N)NC(=O)[C@@H](CCCNC(=N)N)NC(=O)[C@@H](CCCNC(=N)N)NC(=O)[C@@H](CCCNC(=N)N)NC(=O)[C@@H](CCCNC(=N)N)NC(=O)[C@@H](CCCNC(=N)N)NC(=O)CCCCCNC(=O)CCCC[C@@H]1SC[C@@H]2NC(=O)N[C@@H]21)C(=O)N[C@@H](CSCC(=O)OCC(=O)[C@@]1(O)CC[C@H]2[C@@H]3CCC4=CC(=O)CC[C@]4(C)[C@H]3[C@@H](O)C[C@@]21C)C(N)=O` ({Biotin-Ahx}-[dR][dR][dR][dR][dR][dR][dR]AAC(X1)-NH2), the “penetration into skin (fluorescent streptavidin staining)” value (skin of nude mice) was “effectively entered into and across the epidermis and into the dermis”.
For “Copper-diethylenetriaminepentaacetic Acid Complex [Cu-DTPA]”, the “blue color on skin after wiping off” value [1] was “not where the Cu-DTPA alone was spotted”.
For `C/C=C/C[C@@H](C)[C@@H](OC(=O)CSC[C@H](NC(=O)[C@@H](CCCNC(=N)N)NC(=O)[C@@H](CCCNC(=N)N)NC(=O)[C@@H](CCCNC(=N)N)NC(=O)[C@@H](CCCNC(=N)N)NC(=O)[C@@H](CCCNC(=N)N)NC(=O)[C@@H](CCCNC(=N)N)NC(=O)[C@@H](CCCNC(=N)N)NC(=O)CCCCCNC(=O)CCCC[C@@H]1SC[C@@H]2NC(=O)N[C@@H]21)C(N)=O)[C@H]1C(=O)N[C@@H](CC)C(=O)N(C)CC(=O)N(C)[C@@H](CC(C)C)C(=O)N[C@@H](C(C)C)C(=O)N(C)[C@@H](CC(C)C)C(=O)N[C@@H](C)C(=O)N[C@H](C)C(=O)N(C)[C@@H](CC(C)C)C(=O)N(C)[C@@H](CC(C)C)C(=O)N(C)[C@@H](C(C)C)C(=O)N1C` [biotin r7 CsA, B-aca-r7-Cys-O-acyl-Cyclosporin A], the “penetration into human skin” value [2] was “penetrated human epidermis and dermis” and the “presence in CD3+ T cells of inflamed skin” value [3] was “found in all CD3[+] T cells”.
In the case of `C[C@H](NC(=O)[C@H](C)NC(=O)[C@@H](CCCNC(=N)N)NC(=O)[C@@H](CCCNC(=N)N)NC(=O)[C@@H](CCCNC(=N)N)NC(=O)[C@@H](CCCNC(=N)N)NC(=O)[C@@H](CCCNC(=N)N)NC(=O)CCCCCNC(=O)CCCC[C@@H]1SC[C@@H]2NC(=O)N[C@@H]21)C(=O)N[C@@H](CSCC(=O)OCC(=O)[C@@]1(O)CC[C@H]2[C@@H]3CCC4=CC(=O)CC[C@]4(C)[C@H]3[C@@H](O)C[C@@]21C)C(N)=O` ({Biotin-Ahx}-[dR][dR][dR][dR][dR]AAC(X1)-NH2), the “penetration into skin (fluorescent streptavidin staining)” value (skin of nude mice) is reported as “very little uptake”.
In the case of `C/C=C/C[C@@H](C)[C@@H](OC(=O)CN(Cc1ccccc1)C(=O)CNCC(=O)N[C@@H](CCCNC(=N)N)C(=O)N[C@@H](CCCNC(=N)N)C(=O)N[C@@H](CCCNC(=N)N)C(=O)N[C@@H](CCCNC(=N)N)C(=O)N[C@@H](CCCNC(=N)N)C(=O)N[C@@H](CCCNC(=N)N)C(=O)N[C@@H](CCCNC(=N)N)C(N)=O)[C@H]1C(=O)N[C@@H](CC)C(=O)N(C)CC(=O)N(C)[C@@H](CC(C)C)C(=O)N[C@@H](C(C)C)C(=O)N(C)[C@@H](CC(C)C)C(=O)N[C@@H](C)C(=O)N[C@H](C)C(=O)N(C)[C@@H](CC(C)C)C(=O)N(C)[C@@H](CC(C)C)C(=O)N(C)[C@@H](C(C)C)C(=O)N1C` [releasable R7 CsA conjugate], the pH stability [4] is reported as “stable at acidic pH, but labile at physiological pH”.
